In patent US20250059294A1 (PURINOMIA BIOTECH, published 2025):
Values joined by “and” are separate entries in the source; they are usually repeats but may differ in a detail not shown here. Equal values may be shown once.

T1: human CD39 (ectonucleoside triphosphate diphosphohydrolase-1) (human, UniProt P49961 1-510)
T1 sequence (looked up): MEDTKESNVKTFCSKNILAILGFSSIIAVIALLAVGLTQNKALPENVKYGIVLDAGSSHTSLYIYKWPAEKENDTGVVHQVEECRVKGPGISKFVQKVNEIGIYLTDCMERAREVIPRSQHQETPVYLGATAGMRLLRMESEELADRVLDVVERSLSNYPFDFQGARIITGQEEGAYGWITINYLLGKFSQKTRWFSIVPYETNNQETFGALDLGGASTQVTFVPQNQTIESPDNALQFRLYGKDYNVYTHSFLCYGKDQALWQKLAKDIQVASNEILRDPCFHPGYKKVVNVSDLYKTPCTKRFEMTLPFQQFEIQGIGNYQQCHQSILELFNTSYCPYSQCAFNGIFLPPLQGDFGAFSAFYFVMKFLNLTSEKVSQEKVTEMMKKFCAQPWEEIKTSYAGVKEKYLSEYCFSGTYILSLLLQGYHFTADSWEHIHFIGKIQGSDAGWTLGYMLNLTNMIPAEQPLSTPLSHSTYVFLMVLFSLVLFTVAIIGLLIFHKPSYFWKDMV

T2: human CD39 (ectonucleoside triphosphate diphosphohydrolase-1) (human, UniProt P49961 1-510)
T2 chain: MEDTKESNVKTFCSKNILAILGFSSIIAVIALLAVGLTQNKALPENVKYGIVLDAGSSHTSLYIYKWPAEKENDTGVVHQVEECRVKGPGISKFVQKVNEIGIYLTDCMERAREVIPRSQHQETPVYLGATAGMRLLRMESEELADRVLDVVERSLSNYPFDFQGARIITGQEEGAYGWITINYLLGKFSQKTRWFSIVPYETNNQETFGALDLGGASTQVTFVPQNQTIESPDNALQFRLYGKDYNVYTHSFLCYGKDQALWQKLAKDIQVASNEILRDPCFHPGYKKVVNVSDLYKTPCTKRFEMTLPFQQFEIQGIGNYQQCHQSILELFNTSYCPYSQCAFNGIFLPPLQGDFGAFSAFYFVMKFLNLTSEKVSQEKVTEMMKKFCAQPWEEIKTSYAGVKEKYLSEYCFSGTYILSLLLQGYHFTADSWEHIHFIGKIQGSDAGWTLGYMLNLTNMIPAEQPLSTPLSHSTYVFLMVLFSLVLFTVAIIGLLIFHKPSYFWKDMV


Assays:
[1] = target: T1, human CD39 (ectonucleoside triphosphate …); assay: cell-based or functional assay
[2] = target: T2, human CD39 (ectonucleoside triphosphate …); assay: flow cytometry; HCC1739BL cells
[3] = target: T1, human CD39 (ectonucleoside triphosphate …); assay: flow cytometry, serial dilution on HCC1739BL cells, 30 min at 4 °C
Protocol: FIG. 1. Affinity of Ig39-21 measured by flow cytometry using human CD39hi human B lymphoblastoid (HCC1739BL) cells. Our fully human anti-CD39 antibody clone Ig39-21 produced by transient transfection was serially diluted as indicated and incubated with HCC1739BL cells for 30 minutes at 4° C., followed by flow cytometric analysis.

[4] = target: T1, human CD39 (ectonucleoside triphosphate …); assay: flow cytometry, serial dilution on CHO-hCD39 cells, anti-human IgG Fc AF488 secondary
Protocol: FIG. 10. […] Ig39-21 WT, Ig39-21 AF or NP501-BK (an optimized version of Ig39-21 by production using stably transfected cells) were serially diluted as indicated and incubated with CHO-hCD39 cells for 30 minutes at 4° C. Cells were then stained with secondary antibody (anti-human IgG (Fc specific), Alexa Fluor® 488) for 30 minutes at 4° C. and analyzed by flow cytometry. Human IgG1 isotype control antibody (KLH-hIgG1) was used in parallel.

[5] = target: T1, human CD39 (ectonucleoside triphosphate …); assay: flow cytometry, serial dilution on HCC1739BL cells, anti-human IgG Fc AF488 secondary
Protocol: FIG. 11. […] Ig39-21 WT, Ig39-21 AF or NP501-BK were serially diluted as indicated and incubated with HCC1739BL cells for 30 minutes at 4° C. Afterwards, cells were stained with secondary antibody (anti-human IgG (Fc specific), Alexa Fluor® 488) for 30 minutes at 4° C. and analyzed by flow cytometry. Human IgG1 isotype control antibody (KLH-hIgG1) was used in parallel.

Row | ADCC Luc-reporter assay, HCC1739BL target cells, EC50 [1] | Kd [2] [pM] | ADCC Luc-reporter assay (Jurkat hCD16a-158V effector cells), HCC1739BL target cells, EC50 [1] [µg/mL] | CDC assay (10% Normal Human Serum), Raji-hCD39hi target cells, EC50 [1] [µg/mL] | Kd [3] [pM] | Kd [4] [pM] | Kd [5] [pM] | Binder
1 | 0.022 µg/mL |  |  |  |  |  |  | Human/Rabbit chimeric clone 9B6 (antibody, human IgG1, V domains shown) VH: QSVKEAGGRLVTPGGSLTLTCTVSGFSLSAYGISWVRQAPGKGLEWIGIIYSSGRTYYANWAKGRFTISKTSSTTVDLKMTSLTTEDTAAYFCARSRAGISSGDGFDSWGPGTLVTVSS VL: ALVMTQTPSSVSAAVGGTVTINCQASQNIYSNLAWYQQKPGQRPQLLIYRASTLASGVPSRFKGSASGTEYTLTISGVQCDDAATYYCQQGFDSSNIDNTFGGGTEVVVT
2 |  | 1680 |  |  |  |  |  | Human/Rabbit chimeric clone 8C11 (antibody, V domains shown) VH: QSVEESGGRLVTPGTHLTLTCTVSGFSLSKSIISWVRQAPGKGLEYIGIIGSSGSTYYANWAKGRFTISKTSSTTVDLRMTSLTPEDTATYFCARGLLYSGNKSWGPGTLVTVSS VL: AIDMTQTPSSVSAAVGGTVTINCQSSQSVLLNNQLSWFQQKPGQPPKLLIYDASTLESGVPSRFTGSGSGTQFTLTISDLECDDAATYYCLGGYSGNLYAFGGGTEVLVK
3 | 0.014 µg/mL and 0.02 µg/mL |  | 0.014 | 0.38 | 412 | 520 | 290 | Ig39-21 WT (antibody, human IgG1, kappa, V domains shown, also called fully human anti-CD39 antibody clone Ig39-21) VH: EVQLVESGGGVVRPGGSLRLSCAASGFTFSSYAMHWVRQAPGKGLEWVAVISYDVSNKYYADSVKGRFTISRDNSKNTLYLQMNSLRAEDTAVYYCARSYYYYYGMDVWGQGTTVTVSS VL: DVVMTQSPSSLSASVGDRVTITCRASQSISRYLAWYQQKPGQAPRLLIYDASNRATGIPVRFSGSGSGTDFTLTISRLEPEDFAVYYCQQFGRSPRTFGQGTRLEIKR
4 | 0.0017 µg/mL |  |  | 0.31 |  | 480 | 160 | NP501-BK (antibody, V domains shown, decreased fucosylation by optimized production process, 'An optimized version of Ig39-21 by production using stably transfected cells' (CHO); also called Optimized Ig39-21) VH: EVQLVESGGGVVRPGGSLRLSCAASGFTFSSYAMHWVRQAPGKGLEWVAVISYDVSNKYYADSVKGRFTISRDNSKNTLYLQMNSLRAEDTAVYYCARSYYYYYGMDVWGQGTTVTVSS VL: DVVMTQSPSSLSASVGDRVTITCRASQSISRYLAWYQQKPGQAPRLLIYDASNRATGIPVRFSGSGSGTDFTLTISRLEPEDFAVYYCQQFGRSPRTFGQGTRLEIKR
5 | 0.00086 µg/mL and 0.0008 µg/mL |  |  | 0.25 |  | 510 | 350 | Ig39-21 AF (antibody, human IgG1, kappa, V domains shown, afucosylated glycan (produced in presence of fucosylation inhibitor 2-Deoxy-2-fluoro-L-fucose), also called afucosylated Ig39-21) VH: EVQLVESGGGVVRPGGSLRLSCAASGFTFSSYAMHWVRQAPGKGLEWVAVISYDVSNKYYADSVKGRFTISRDNSKNTLYLQMNSLRAEDTAVYYCARSYYYYYGMDVWGQGTTVTVSS VL: DVVMTQSPSSLSASVGDRVTITCRASQSISRYLAWYQQKPGQAPRLLIYDASNRATGIPVRFSGSGSGTDFTLTISRLEPEDFAVYYCQQFGRSPRTFGQGTRLEIKR
6 |  | 1100 |  |  |  |  |  | Human/Rabbit chimeric clone 8D8 (antibody, V domains shown) VH: QSVEESGGRLVTPGTPLTLTCTVSGFSLSSYAISWVRQAPGKGLEYIAIINSYGTTYYASWAKGRVTISKTSSTVDLKISSPTTEDTATYFCARGDSYGSGVGLGLWGPGTLVTVSS VL: AYDMTQTPASVEVAVGGTVTIKCQASQNIYSNLAWYQQKPGQRPKLLIYRASSLASGVPSRFSGSGSGTEFTLTISGVQCDDAATYYCQQGFSSNNVDNTFGGGTEVVVK
7 |  | 2950 |  |  |  |  |  | Human/Rabbit chimeric clone 9C10 (antibody, V domains shown) VH: QSVEESGGRLVTPGTPLTLTCTVSGFSLSSYAMSWVRQAPGKGLEYIGIISSSGSTYYASWAKGRFTISKTSTTVDLKISSPTTEDTATYFCARDRVIYSIGPYYFNLWGPGTLVTVSS VL: AYDMTQTPSSVSATVGGTVTINCQASEIIYSNLAWYQQKPGQPPKLLIYGASTLASGVPSRFKGSGSGTEYTLTISDLQCDDAATYYCQQSFSSNNVGNIFGGGTEVVVK
